# Measured values from US20150079612A1.
# B1: monoclonal antibody 61C6 (antibody, mouse IgG2b, kappa, V domains shown)
# VH: QIQLVQSGPELKKPGETVTISCKASGYTLTNYGMNWVKQAPGKGLKWMGWINTNSGEPTYVEEFKGRFAFSLETSVSTVYLQISDLKHEDTATYFCARWGPHFNAYGWFAYWGQGTLVTVSA
# VL: YIQMTQTASSLSASLGDRVTISCRASQDIWNYLNWYQQKPDGTIKLLIYYKSRLHSGVPSRFSGSGSGIDFSLTISNLEQEDFATYFCQQGHTLPWTFGGGSKLEIKR
# modifications: biotinylated on primary amines with EZ-Link Sulfo-NHS-LC-Biotin (positions not stated)
# Assays:
# Hemoglobin [1] = assay: competitive ECL 5-FU assay, Bi-61C6 beads and TAG Plus 1-5C-5-FU-BSA, hemoglobin 10 mg/mL in plasma without 5-FU
# Hemoglobin [2] = assay: competitive ECL 5-FU assay, Bi-61C6 beads and TAG Plus 1-5C-5-FU-BSA, hemoglobin 10 mg/mL in plasma with 75 ng/mL spiked 5-FU
# Hemoglobin [3] = assay: competitive ECL 5-FU assay, Bi-61C6 beads and TAG Plus 1-5C-5-FU-BSA, hemoglobin 10 mg/mL in plasma with 1000 ng/mL spiked 5-FU
binder,measurement,setting,value
B1,% Cross-React,Hemoglobin [1],0%
same,% Cross-React,Hemoglobin [2],0%
same,% Cross-React,Hemoglobin [3],-0.1%
